From a protein production outcome set (Wang et al. 2014)

Assay: label from the status in PepcDB records

MAKSHPRWRLAKKVLTWLFFIAVVVLLVVYAKKVDWGDVWTVIRDYNRTALLSAVGLVIVSYLLYGCYDLLGRLYCGHKLAKRQVMLVSFVCYAFNLTLSTWVGGIGMRYRLYSRLGLPGSTITRIFSLSITTNWLGYILLGGIIFTFGIVQLPDHWYIDAGTLRILGIVLLLIIAVYLWFCAFAKRRHMTIKGQKLVLPSWKFALAQMAISSANWMAMGAIIWLLMGQDVNYFFVLGVLLVSSIAGVIVHIPAGIGVLEAVFLALLAGEHTSQGTIIAALLAYRVLYYFIPLLLALVCYLILESRAKKLRAKNERAMAK
protein production: failed

MNALRKVGAVAWAAVGSLLLSGCEFNGWYDVQLPGGAAADGHAYHVTVEFRDVLDLVPQSAVKVNNVTVGAVEEVQLDGWHARVRLRVADSVKLPANAVAELRQTSMLGEKYVALSTPPGTAPVGRLGDGDRIPLSRSGRNPDIEEVLSALSALLNGGGVAQLKTITVELNKALDGREDRVRSLLKELNTFIGGLDGRRKDIIHALKAVDRLAGRLGKEKKTIAQAVDTMPPALKVLADQRRDLTRMLTALSKLGTTGTKVVNASHDDTVANLKQLRPILQQLNKAGADLPNSLELLTTYPFPRNAVDAVRGDYVNLDITADLDLSALYRNLAGGSDKSGGGNGESTQPETPDIPDLPDLPTVPTPTALPSAPSLPSSPSMPSAPSGGGGPLCPPVCTSSYTTRGEPPEGIDLALAELMLKGVQP
protein production: failed

VELLQVDADLQAEIVGKYNADLQKAVQIEEKKAREIATEAVKEHVTAEYEERYAEHEEHDRIMRDVAEILEQMEHAEVRRLITEDKVRPD
protein production: not failed

MANRLRTGIDVLDRKLDGGIPAGSIVVLSAQPASQAELFLYELTATRGTLWLSLDRTAESVIASIEQTPANTGDPTVRHISGEAPLDNAGKLVSALPETSNLIVDPLDVLEAQEPHSRFRAFMNDLQNHIVNTGSLAIVHCLDGRDVPPLRDTTEHFADVVFQLNTTTNGDEVENRLAIPKFRGGRAPTDIIKLNLVEEVSIDTSRDIALEHHHHHH
protein production: failed

MIKLPVLLADINIQSLPTEPELILNNLAITTLVENLIILLLVATLVALVARWLKIPYVIGLVLAGLAIPRGLSVGLNPELILNFFLPILIFEAAINTDISRLRSTIKPITVLAGPGVVISAAITAVLLKIGLGLAWVTAAGVSVILTITDTVSVIAAFRSVPVPRRLATIVEGESMLNDGVAMVLLSVITTIHIQGGFSAGEGIRQIFVAFVGGGLVGLGLGYLCVGLFRQLNDDLSDILLTVSVSLGTFQIGQMLGVSSAIAVVVAGLVIGNLALKQTSASIKVTLLSFWEYAGFGVNTLIFLLVGIEVYPSILLSTIPAALIAIVAYQIGRVFSIYPLLYLLSFFDRPLPLRWQHVLIAGNVKGSLSMALALALPLTLPGRDQVVTLVFSTVMVSLIGQGLSLPWVVKKLQLSKPSPLAQKIAMLQLNLVTAKAAQGELKYLLEAGSLPKFLYEELFADYQARIANSEQELREFYNQRNLIFSEGEVEKKYIDGLYRRLYIAEKSAINDALAKGILADDISDEYLQVLNEKLLALQDD
protein production: failed

MKVAVLVGGVGRRIGMEKTEVMLCGKKLIEWVLEKYSPFQTVFVCRDEKQAEKLSSRYEAEFIWDLHKGVGSIAGIHAALRHFGSCVVAAIDMPFVKPEVLEHLYKEGEKAGCDALIPKHDYPEPLLAYYAESAADELERAILQGIRKILVPLERLNVVYYPVEKLRKFDKELISFFNINTPDDLKRAEEICSKMSTEGLLEHHHHHH
protein production: not failed

KDAAWLNGWTSYNKVAREIVLAEMANTTILEEGKIVAELRRLLPDKAGLFIGNSMPIRDVDTYFSQIDKKIKMLANRGANGIDGVVSSALGASVVFQPMFLLIGDLSFYHDMNGLLMAKKYKMNLTIVIVNNDGGGIFSFLPQANEPKYFESLFGTSTELDFRFAAAFYDADYHEAKSVDELEEAIDKASYHKGLDIIEVKTNRHENKANHQALWVKIADALKALD
protein production: failed

MERAFLRYVPILAFITIMTMYVEMVILPSLPEIENQFSITSSEASWVLSSETLAGMTLAPFLGKLADSYGRKKVLISILVVYILSVFLTAISPNYSILLISRSIQGIGLSINPIAYTILRERIPDRELPIAQGIIASTFAIGAAVALPIGSYISQYFSWEFAYETAIPLLILSTIIIYVILPSSESKGSDRKIDDVGVILLSLSFLILGIGLTEAPTWGWTSLQFFTSLLLSILLFYLFALHISKSRNPIIDPYDFKNPNVAVPLISSFITGFGLFLTFQSLVFIFELPSPIGYGMTILQTGETMAPIALIILIAGPFFGRLVTKIGYMKVILTSSSVSSFLLLFLAYIISLRISVLELMGFLSLILFFISGMNVTRVTLLIASSKRERMSTLTGTNTSMRLMGNTLGPIVVGSLEDTFKTPIFEGYLNNIPIFAFVPSRLAFEYAFLISMATTVLVTILATRIRERPSTTTYA
protein production: failed

MAKTPAAAPTATDPVAIAGPAPETIAVHGHRIACDGVGGALGHPRVWLEMGAAGFVDCPYCDRRFVAATDAGHDEHLAPGVYVDAAGHLEHHHHHH
protein production: failed

MGGHPQLRLVKALLLLGLNPVSASLQDQHCESLSLASNISGLQCNASVDLIGTCWPRSPAGQLVVRPCPAFFYGVRYNTTNNGYRECLANGSWAARVNYSECQEILNEEKKSKVHYHVAVIINYLGHCISLVALLVAFVLFLRLRPGCTHWGDQADGALEVGAPWSGAPFQVRRSIRCLRNIIHWNLISAFILRNATWFVVQLTMSPEVHQSNVGWCRLVTAAYNYFHVTNFFWMFGEGCYLHTAIVLTYSTDRLRKWMFICIGWGVPFPIIVAWAIGKLYYDNEKCWFGKRPGVYTDYIYQGPMILVLLINFIFLFNIVRILMTKLRASTTSETIQYRKAVKATLVLLPLLGITYMLFFVNPGEDEVSRVVFIYFNSFLESFQGFFVSVFYCFLNSEVRSAIRKRWHRWQDKHSIRARVARAMSIPTSPTRVSFHSIKQSTAV
protein production: failed

MLFAAEGGGFFSSSASGYSNGLALLLLGQKTEQKPIKVSSQWNHYHLVLEDSDTGFRLDSSKNWLSSACTSLICFGRKSERLESEGKKDEAPSVEDYNNCEVTNRFALKSSLKKRSFSDVVIGDDDVSRDGVVDHIDRRKVQWPDTCGIEIAEVREFEPRYGCFLL
protein production: failed

MKAFTVHQAKTHLSRLLKAVEEGEEVVILRGKTPVARLVPYRKGKRPLGFVPGKLPESFFEPLPEEELALWEGATS
protein production: not failed

MTPYQGEPLSLNFQDVEVRAVLQVLADYAGVNLVASDAVQGSVTLRLQDVPWDQALDLVLRSKGLSRRQEGNVLLVAPAAEFAAQSADARVSQALDAHLQPLRRELLPIHHAKAADLAQLLLAGLEGDGIPPASLSVDERTNTLVVHLPADRLAEMRQLVAQLDVPVRQVAIEARIVEANVDYEKSLGVRWGGPLYGEKLRPGKELFVDLGLERAGSSIGLGLLRGDVLLDLELSAMEKSGNGEIISQPKVVTADKETARILKGTEVPYQETSQSGATSVSFREASLSLEVTPQITPDNKVIMTVRVTKDEPDYVNALNNVPPIRKNEVNAKVRVADGETIVIGGVYSTSQNNVVDKVPFFGDLPYVGRLFRRDALQEKKSELLVFLTPRIMSDQAIAVSRLEHHHHHH
protein production: failed

MVCFASLFEEVSMHTCPLCHNQHTRHYFEDKHREYLQCEQCYLVFVNPDQRLDAETEKAHYDLHENNPEDIGYRRFLSRIADPITERISPQSNGIDFGCGPGPTLSLMLEEAGHNMALYDIYYHPDTAVLEKQYDFMTATEVIEHLYHPDVVWKQWLNLVKPGGWIGLMTKMVIDVEAFKSWHYKNDPTHVVFFSRDTFQFLAERDKLELEFIGNDVILLRKTQLEHHHHHH
protein production: not failed

NNVIGALCVFQDISELVGIKELNERFQKILETSHDLICFIDENRKISYINPTYEKCLNIKSEDVLGKDLMKISPD
protein production: failed

MHSLARRALHTCNVPRDLNPVTFCDTAGEHPDRVGLDSNAAEAVWRSVEALYRTGVHPGIQLSLRYRGEQVLHRSIGHARGNGPHDPASLPRIPMTTDTPICFFSASKAVTALLMHMLSEQGLVNLMDPVSYYCPEFARNGKRTITVHQILSHRGGIPAIPRETPIDVLWDRDEIWRLLCAAKPVEVDGAKVAYHAITGGFVLQRVLEKVTGDTIESYLDRYLRRPMGMKWFTYGIAPEHLHELASNYATGPTPRFPVSWVVNRALGGDIRTVEKVTNDPRFQEAVIPAGNLCGTAEEMGRFFQMMLNGGSWDGKRICSELTVRRAIQQFGSLQMDRTMLVPMRFSAGMMLGSNPVGLWGQQSRYAFGHVGLINKLCWADPARDISVSLLNTGFPIVGHHLPALARFVYTVCKQFPVLPENQRRLVAA
protein production: failed

VSDPLHVTFVCTGNICRSPMAEKMFAQQLRHRGLGDAVRVTSAGTGNWHVGSCADERAAGVLRAHGYPTDHRAAQVGTEHLAADLLVALDRNHARLLRQLGVEAARVRMLRSFDPRSGTHALDVEDPYYGDHSDFEEVFAVIESALPGLHDWVDERLARNGPS
protein production: not failed

MPNSRLEGELPGGGVVTFDTDLPIAAHADEIADLIKHHQVVVVAGETGSGKTTQLPKICLALGRRQIAHTQPRRIAARSVAERVAEEMGVELGEQVGYQVRFTRRASSDTALTVMTDGVLLAEISHDRDLCAHDTIIIDEAHERSLNIDFLLGYLKQLLPRRPDLKVIITSATIDTARFSAHFDDAPVIEVSGRTYPVEVRYRPLDPSEQIRPDDEDDIDDEDELLHRPSAPSLTSPDDEVVDQVTGICRAVQELCREESGDILVFLAGEQEIRETAEALADLNLSNTEVLPLFARLSAAEQHRVFTPHTGRRIVLATNVAETSLTVPGIRYVIDPGTARISRYSVRTKVQRLPIEPVSQASANQRAGRCGRVAPGICIRLYSQTSFESRPEFTEPEILRTNLAAVILQMAQARLGAITDFPFVEAPDRSRINDGIRLLDELGALKPGHRDASRLTKIGHQLARVPLDPRLGRMLLEGARQGSLAEVLVIVAALSIRDVRERPADKREEADAFHRRFATEANLLQTLQAADNTDNNQVGDWSQVRRQHIHQEAANTAKPGPPARHTPHTRGKISPRPQAGGIDEGGDIMAIHRLWRYLRHQRRQMGSSAFRRMCRAEYINYLRVREWDDLHGQLRQIAKELHLEVNRTSAPTDRVLVALLSGLLSHIGLVQVRQPAKRHGQRPGPQEYLGARGTKFAINPGSLLARKSPELVVAVELVETSRLWARTVAAVQPEWVEEVAGPLIRRSWAVPHWAASTASVVATERGTLFGVPLWADRRVTYGRIDPVASRQIFIRSALVERNWRSDHGFLKHNDRVRDEAADLEERSRQRGLVADDDAIFAFYDRRIPDGIVSGSHFDAWWRRVQDRHQLDLSIDDLVDSGSVDADAFPDHWKVGNLELPVRYVFEPGSGHDGVTVTIPLALLNQVPTAPFSWQVPGLRTELATELIRALPKRIRTQLVPAPDRARAALTWLEDHDADRHAPFTNELGRALRTLTGVIINPDDWNIAAIPAHLRIGFDITDAEGRPVGKKSKKNGKDKLKGSQPAPIARSEDLDALQTDLAPKVSQSLTKAAGQPQIHGAKEWTFDPIPKRVDLSRKGPDAVGYPCLVDEGDSVGTTVLDTPRAQRTSHASGVVKLLVLNLPDPTKWVVTHMDNATKLALATSPYPSVPALLADARHKAVASVAQEKAGDLSGIRDKKTFDDLALVVRQDQADRMARVVRTAGRILSRVVAARQALATVSDPAIHADIVAQIDDLVFENFISATPDPWYDDMPRWIQGVSVRIESLMTNPSRDPRQMAELEPLLADYDALCEEQPAGKLPAEVEEIGFMLEELRVQYFAQKLGTRVSVSPKRIRMAIAKLS
protein production: failed

MALVDDGSQPLVSVIIASYNHEKYIEASIASVAAQTYRNVELLVVDDGSSDGSVELLRGLQAKYGFDLRVQQNQGLSRTLNEAITRARGNLIVPFGSDDIMLPQRLEKQVAHMWDKPEVGICAGNIEIIDSNGRVMPGKEQRKRDLPFRRLDFDDLFLDRKPGPMAPTLMFRREALEKVGGFDPDIRLEDVYIELAVTKAGYVIDILGEVLAQYRKHPTNTYKNARFMVDNVFKTYSQFSDHPDYEQVIMRFRNSMFLKCSNRDKVLARELLSGLPLKYWNEKTFRGIARLFFS
protein production: failed
